Numbered stars: 1 amine (or outer) side, 2 acyl side, 3 side chain; on linkers, the order of the positions; unused ones are H or OH. Square brackets hold non-standard residues; d marks the D form. Side chains are listed from the residue outwards. * marks the point of attachment. C18 diacid = O=C(O)CCCCCCCCCCCCCCCCC(=O)*; γGlu = O=C(O)[C@H](CCC(=O)[*:2])N[*:1]; Aib = CC(C)(N)C(=O)O
T1: human GLP-2 receptor (hGLP2-R) (human, UniProt O95838)
T1 sequence: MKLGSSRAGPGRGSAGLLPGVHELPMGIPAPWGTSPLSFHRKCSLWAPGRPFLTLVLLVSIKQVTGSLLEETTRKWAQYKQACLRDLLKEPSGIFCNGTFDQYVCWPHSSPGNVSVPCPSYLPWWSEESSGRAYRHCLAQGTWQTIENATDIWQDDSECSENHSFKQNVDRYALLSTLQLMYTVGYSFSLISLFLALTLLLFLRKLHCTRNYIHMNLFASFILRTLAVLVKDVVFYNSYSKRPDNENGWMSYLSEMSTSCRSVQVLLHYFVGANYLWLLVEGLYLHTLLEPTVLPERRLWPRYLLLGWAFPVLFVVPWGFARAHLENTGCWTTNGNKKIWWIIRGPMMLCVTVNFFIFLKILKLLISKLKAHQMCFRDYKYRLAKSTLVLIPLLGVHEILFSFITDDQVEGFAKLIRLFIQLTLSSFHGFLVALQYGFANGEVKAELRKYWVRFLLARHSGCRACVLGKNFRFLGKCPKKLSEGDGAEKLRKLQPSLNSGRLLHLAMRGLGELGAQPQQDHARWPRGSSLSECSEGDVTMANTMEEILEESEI

B1: Compound 20 (peptide)
peptide: H-H[Aib]EGTFSSELATILDK([γGlu-C18 diacid])QAARDFIAWLIEHKITD-OH
SMILES: CC[C@H](C)[C@H](NC(=O)[C@H](Cc1ccccc1)NC(=O)[C@H](CC(=O)O)NC(=O)[C@H](CCCNC(=N)N)NC(=O)[C@H](C)NC(=O)[C@H](C)NC(=O)[C@H](CCC(N)=O)NC(=O)[C@H](CCCCNC(=O)CC[C@H](NC(=O)CCCCCCCCCCCCCCCCC(=O)O)C(=O)O)NC(=O)[C@H](CC(=O)O)NC(=O)[C@H](CC(C)C)NC(=O)[C@@H](NC(=O)[C@@H](NC(=O)[C@H](C)NC(=O)[C@H](CC(C)C)NC(=O)[C@H](CCC(=O)O)NC(=O)[C@H](CO)NC(=O)[C@H](CO)NC(=O)[C@H](Cc1ccccc1)NC(=O)[C@@H](NC(=O)CNC(=O)[C@H](CCC(=O)O)NC(=O)C(C)(C)NC(=O)[C@@H](N)Cc1c[nH]cn1)[C@@H](C)O)[C@@H](C)O)[C@@H](C)CC)C(=O)N[C@@H](C)C(=O)N[C@@H](Cc1c[nH]c2ccccc12)C(=O)N[C@@H](CC(C)C)C(=O)N[C@H](C(=O)N[C@@H](CCC(=O)O)C(=O)N[C@@H](Cc1c[nH]cn1)C(=O)N[C@@H](CCCCN)C(=O)N[C@H](C(=O)N[C@H](C(=O)N[C@@H](CC(=O)O)C(=O)O)[C@@H](C)O)[C@@H](C)CC)[C@@H](C)CC
B2: Compound 22 (peptide)
peptide: H-H[Aib]EGSFTSELATILDK([γGlu-C18 diacid])QAARDFIAWLIAHKITD-OH
SMILES: CC[C@H](C)[C@H](NC(=O)[C@H](CC(C)C)NC(=O)[C@H](Cc1c[nH]c2ccccc12)NC(=O)[C@H](C)NC(=O)[C@@H](NC(=O)[C@H](Cc1ccccc1)NC(=O)[C@H](CC(=O)O)NC(=O)[C@H](CCCNC(=N)N)NC(=O)[C@H](C)NC(=O)[C@H](C)NC(=O)[C@H](CCC(N)=O)NC(=O)[C@H](CCCCNC(=O)CC[C@H](NC(=O)CCCCCCCCCCCCCCCCC(=O)O)C(=O)O)NC(=O)[C@H](CC(=O)O)NC(=O)[C@H](CC(C)C)NC(=O)[C@@H](NC(=O)[C@@H](NC(=O)[C@H](C)NC(=O)[C@H](CC(C)C)NC(=O)[C@H](CCC(=O)O)NC(=O)[C@H](CO)NC(=O)[C@@H](NC(=O)[C@H](Cc1ccccc1)NC(=O)[C@H](CO)NC(=O)CNC(=O)[C@H](CCC(=O)O)NC(=O)C(C)(C)NC(=O)[C@@H](N)Cc1c[nH]cn1)[C@@H](C)O)[C@@H](C)O)[C@@H](C)CC)[C@@H](C)CC)C(=O)N[C@@H](C)C(=O)N[C@@H](Cc1c[nH]cn1)C(=O)N[C@@H](CCCCN)C(=O)N[C@H](C(=O)N[C@H](C(=O)N[C@@H](CC(=O)O)C(=O)O)[C@@H](C)O)[C@@H](C)CC
B3: Compound 19 (peptide)
peptide: H-H[Aib]EGTFTSELATILDK([γGlu-C18 diacid])QAARDFIAWLIQHKITD-OH
SMILES: CC[C@H](C)[C@H](NC(=O)[C@H](Cc1ccccc1)NC(=O)[C@H](CC(=O)O)NC(=O)[C@H](CCCNC(=N)N)NC(=O)[C@H](C)NC(=O)[C@H](C)NC(=O)[C@H](CCC(N)=O)NC(=O)[C@H](CCCCNC(=O)CC[C@H](NC(=O)CCCCCCCCCCCCCCCCC(=O)O)C(=O)O)NC(=O)[C@H](CC(=O)O)NC(=O)[C@H](CC(C)C)NC(=O)[C@@H](NC(=O)[C@@H](NC(=O)[C@H](C)NC(=O)[C@H](CC(C)C)NC(=O)[C@H](CCC(=O)O)NC(=O)[C@H](CO)NC(=O)[C@@H](NC(=O)[C@H](Cc1ccccc1)NC(=O)[C@@H](NC(=O)CNC(=O)[C@H](CCC(=O)O)NC(=O)C(C)(C)NC(=O)[C@@H](N)Cc1c[nH]cn1)[C@@H](C)O)[C@@H](C)O)[C@@H](C)O)[C@@H](C)CC)C(=O)N[C@@H](C)C(=O)N[C@@H](Cc1c[nH]c2ccccc12)C(=O)N[C@@H](CC(C)C)C(=O)N[C@H](C(=O)N[C@@H](CCC(N)=O)C(=O)N[C@@H](Cc1c[nH]cn1)C(=O)N[C@@H](CCCCN)C(=O)N[C@H](C(=O)N[C@H](C(=O)N[C@@H](CC(=O)O)C(=O)O)[C@@H](C)O)[C@@H](C)CC)[C@@H](C)CC
B4: Compound 17 (peptide)
peptide: H-H[Aib]EGTFSSELATILDK([γGlu-C18 diacid])QAARDFIAWLIQHKITD-OH
SMILES: CC[C@H](C)[C@H](NC(=O)[C@H](Cc1ccccc1)NC(=O)[C@H](CC(=O)O)NC(=O)[C@H](CCCNC(=N)N)NC(=O)[C@H](C)NC(=O)[C@H](C)NC(=O)[C@H](CCC(N)=O)NC(=O)[C@H](CCCCNC(=O)CC[C@H](NC(=O)CCCCCCCCCCCCCCCCC(=O)O)C(=O)O)NC(=O)[C@H](CC(=O)O)NC(=O)[C@H](CC(C)C)NC(=O)[C@@H](NC(=O)[C@@H](NC(=O)[C@H](C)NC(=O)[C@H](CC(C)C)NC(=O)[C@H](CCC(=O)O)NC(=O)[C@H](CO)NC(=O)[C@H](CO)NC(=O)[C@H](Cc1ccccc1)NC(=O)[C@@H](NC(=O)CNC(=O)[C@H](CCC(=O)O)NC(=O)C(C)(C)NC(=O)[C@@H](N)Cc1c[nH]cn1)[C@@H](C)O)[C@@H](C)O)[C@@H](C)CC)C(=O)N[C@@H](C)C(=O)N[C@@H](Cc1c[nH]c2ccccc12)C(=O)N[C@@H](CC(C)C)C(=O)N[C@H](C(=O)N[C@@H](CCC(N)=O)C(=O)N[C@@H](Cc1c[nH]cn1)C(=O)N[C@@H](CCCCN)C(=O)N[C@H](C(=O)N[C@H](C(=O)N[C@@H](CC(=O)O)C(=O)O)[C@@H](C)O)[C@@H](C)CC)[C@@H](C)CC
B5: Compound 23 (peptide)
peptide: H-H[Aib]EGTFTSELATILDK([γGlu-C18 diacid])QAARDFIAWLIAHKITD-OH
SMILES: CC[C@H](C)[C@H](NC(=O)[C@H](CC(C)C)NC(=O)[C@H](Cc1c[nH]c2ccccc12)NC(=O)[C@H](C)NC(=O)[C@@H](NC(=O)[C@H](Cc1ccccc1)NC(=O)[C@H](CC(=O)O)NC(=O)[C@H](CCCNC(=N)N)NC(=O)[C@H](C)NC(=O)[C@H](C)NC(=O)[C@H](CCC(N)=O)NC(=O)[C@H](CCCCNC(=O)CC[C@H](NC(=O)CCCCCCCCCCCCCCCCC(=O)O)C(=O)O)NC(=O)[C@H](CC(=O)O)NC(=O)[C@H](CC(C)C)NC(=O)[C@@H](NC(=O)[C@@H](NC(=O)[C@H](C)NC(=O)[C@H](CC(C)C)NC(=O)[C@H](CCC(=O)O)NC(=O)[C@H](CO)NC(=O)[C@@H](NC(=O)[C@H](Cc1ccccc1)NC(=O)[C@@H](NC(=O)CNC(=O)[C@H](CCC(=O)O)NC(=O)C(C)(C)NC(=O)[C@@H](N)Cc1c[nH]cn1)[C@@H](C)O)[C@@H](C)O)[C@@H](C)O)[C@@H](C)CC)[C@@H](C)CC)C(=O)N[C@@H](C)C(=O)N[C@@H](Cc1c[nH]cn1)C(=O)N[C@@H](CCCCN)C(=O)N[C@H](C(=O)N[C@H](C(=O)N[C@@H](CC(=O)O)C(=O)O)[C@@H](C)O)[C@@H](C)CC
B6: Compound 18 (peptide)
peptide: H-H[Aib]EGSFTSELATILDK([γGlu-C18 diacid])QAARDFIAWLIQHKITD-OH
SMILES: CC[C@H](C)[C@H](NC(=O)[C@H](Cc1ccccc1)NC(=O)[C@H](CC(=O)O)NC(=O)[C@H](CCCNC(=N)N)NC(=O)[C@H](C)NC(=O)[C@H](C)NC(=O)[C@H](CCC(N)=O)NC(=O)[C@H](CCCCNC(=O)CC[C@H](NC(=O)CCCCCCCCCCCCCCCCC(=O)O)C(=O)O)NC(=O)[C@H](CC(=O)O)NC(=O)[C@H](CC(C)C)NC(=O)[C@@H](NC(=O)[C@@H](NC(=O)[C@H](C)NC(=O)[C@H](CC(C)C)NC(=O)[C@H](CCC(=O)O)NC(=O)[C@H](CO)NC(=O)[C@@H](NC(=O)[C@H](Cc1ccccc1)NC(=O)[C@H](CO)NC(=O)CNC(=O)[C@H](CCC(=O)O)NC(=O)C(C)(C)NC(=O)[C@@H](N)Cc1c[nH]cn1)[C@@H](C)O)[C@@H](C)O)[C@@H](C)CC)C(=O)N[C@@H](C)C(=O)N[C@@H](Cc1c[nH]c2ccccc12)C(=O)N[C@@H](CC(C)C)C(=O)N[C@H](C(=O)N[C@@H](CCC(N)=O)C(=O)N[C@@H](Cc1c[nH]cn1)C(=O)N[C@@H](CCCCN)C(=O)N[C@H](C(=O)N[C@H](C(=O)N[C@@H](CC(=O)O)C(=O)O)[C@@H](C)O)[C@@H](C)CC)[C@@H](C)CC
B7: Compound 21 (peptide)
peptide: H-H[Aib]EGTFSSELATILDK([γGlu-C18 diacid])QAARDFIAWLIAHKITD-OH
SMILES: CC[C@H](C)[C@H](NC(=O)[C@H](CC(C)C)NC(=O)[C@H](Cc1c[nH]c2ccccc12)NC(=O)[C@H](C)NC(=O)[C@@H](NC(=O)[C@H](Cc1ccccc1)NC(=O)[C@H](CC(=O)O)NC(=O)[C@H](CCCNC(=N)N)NC(=O)[C@H](C)NC(=O)[C@H](C)NC(=O)[C@H](CCC(N)=O)NC(=O)[C@H](CCCCNC(=O)CC[C@H](NC(=O)CCCCCCCCCCCCCCCCC(=O)O)C(=O)O)NC(=O)[C@H](CC(=O)O)NC(=O)[C@H](CC(C)C)NC(=O)[C@@H](NC(=O)[C@@H](NC(=O)[C@H](C)NC(=O)[C@H](CC(C)C)NC(=O)[C@H](CCC(=O)O)NC(=O)[C@H](CO)NC(=O)[C@H](CO)NC(=O)[C@H](Cc1ccccc1)NC(=O)[C@@H](NC(=O)CNC(=O)[C@H](CCC(=O)O)NC(=O)C(C)(C)NC(=O)[C@@H](N)Cc1c[nH]cn1)[C@@H](C)O)[C@@H](C)O)[C@@H](C)CC)[C@@H](C)CC)C(=O)N[C@@H](C)C(=O)N[C@@H](Cc1c[nH]cn1)C(=O)N[C@@H](CCCCN)C(=O)N[C@H](C(=O)N[C@H](C(=O)N[C@@H](CC(=O)O)C(=O)O)[C@@H](C)O)[C@@H](C)CC

Biological target: T1, human GLP-2 receptor (hGLP2-R)
Experiment: cell-based or functional assay

EC50 GLP-2 (nM), cAMP AlphaScreen | Binder
0.37 nM | B1
0.2 nM | B2
0.23 nM | B3
0.33 nM | B4
0.24 nM | B5
0.21 nM | B6
0.27 nM | B7

Biological target: human glucagon-like peptide 1 receptor (GLP-1R) (human, UniProt P43220)
Experiment: cell-based or functional assay

EC50 GLP-1 (nM), cAMP AlphaScreen | Binder
0.55 nM | B1
0.23 nM | B2
0.066 nM | B3
0.9 nM | B4
0.13 nM | B5
0.19 nM | B6
1.8 nM | B7

From patent publication US20250073311A1, “DOSAGE REGIME” (ZEALAND PHARMA A/S, priority 2021, published 2025)
